The values that follow come from article PMC11424739.

What is called Km is the concentration of substrate that gives half-maximal velocity. The term kcat denotes the number of substrate molecules converted per active site and unit of time at saturation. As a reminder, the kcat/Km is the second-order rate constant that governs catalysis at low substrate concentration.

This data set relates to CC(C)CC1CC(=O)NC(=O)C1. Description: purified protein. In kind it is biochemical, Paraburkholderia phytofirmans. As to conditions: 50 mmol L^-1 Tris-HCl pH 8.0, 40 °C, IBI 0.10-2.0 mg mL^-1.

As to “BpIH (Paraburkholderia phytofirmans PsJN)”, the Km stood at 9.02 ± 0.51 mmol/L, the kcat was 0.00967 ± 0.0075 s⁻¹ and the kcat/Km amounted to 1.07 M⁻¹ s⁻¹.
On the same counts, the results for “BpIH (Paraburkholderia phytofirmans PsJN; H133N/S226I/Y37F)” are 7.31 ± 0.73 mmol/L, 0.0573 ± 0.005 s⁻¹ and 7.82 M⁻¹ s⁻¹.
On the same counts, the results for “BpIH (Paraburkholderia phytofirmans PsJN; H133N/S226L/Y37F)” are 8.48 ± 1.03 mmol/L, 0.052 ± 0.00367 s⁻¹ and 5.67 M⁻¹ s⁻¹.
The matching figures for “BpIH (Paraburkholderia phytofirmans PsJN; S226L)”: 9.28 ± 1.09 mmol/L, 0.0517 ± 0.00617 s⁻¹ and 5.47 M⁻¹ s⁻¹.
